Source: patent US20260125428A1, “SYNTHETIC TRIPLEX PEPTIDE NUCLEIC ACID-BASED INHIBITORS FOR CANCER THERAPY” (University of Connecticut, priority 2022, published 2026)

Legend:
HeLa cells = assay: Cellular uptake in HeLa cells (confocal microscopy); format: cell-based; conditions: 24 h, live cells
Procedure: (§1) FIGS. 3A-C show cellular uptake of indicated PNAs. (3A) A confocal image of HeLa cells showing cellular and nuclear uptake of γPNA7-NLS containing TAMRA at 2 μM dose and after 24 h of treatment. (3B) A confocal image of U2932 cells showing cellular and nuclear uptake of γPNA7-NLS containing tetramethylrhodamine (TAMRA) at 2 μM dose and after 24 h of treatment. (3C) A histogram representing flow cytometry results for cellular uptake of γPNA7-NLS in U2932 cells after incubation at different doses for 24 h. The scale bar represents 10 μm.
(§2) Cellular uptake: HeLa and U2932 cells were purchased from ATCC (USA), cultured in EMEM and RPMI media, respectively (Invitrogen, USA), supplemented with […] and 1% Penstrep at 37° C. and 5% CO2.
(§3) Confocal Microscopy: HeLa cells were seeded in 8 chamber slides at 50,000 cells/well. U2932 cells were seeded in 24 well plate at 100,000 cells per well. γPNA7-NLS containing TAMRA was added to the cells at 2 μM concentration. After 24 h, cells were washed with PBS to remove uninternalized PNA. The nucleus of live cells was stained using Hoechst dye and were visualized under confocal microscope (Nikon AIR, USA) while cells are maintained in CO2 independent media. […] Cells were then suspended in PBS and analyzed using LSR Fortessa X-20 cell analyzer (BD Biosciences, USA). The data was analyzed using Flowjo software.

U2932 cells = assay: Cellular uptake in U2932 cells (confocal microscopy, flow cytometry); format: cell-based; conditions: 24 h
Procedure: as §1, §2, §3

[1] = Biodistribution in U2932 xenograft mice (IVIS, confocal); format: in vivo
Procedure: FIGS. 5A-D show results of in vivo administration of indicated PNAs. (5A) IVIS® images of xenograft mice bearing tumors at indicated time points after systemic administration of PNA-TAMRA and γPNA7-NLS at 5 mg/kg. (5B) IVIS® imaging of organs harvested from xenograft mice treated with PNA-TAMRA and γPNA7-NLS after 6 h of systemic administration. (5C) Quantification of fluorescence from the organs harvested from PNA-TAMRA and γPNA7-NLS treated xenograft mice. (5D) Confocal microscopy images of tumor and kidney tissue cryo-sections from PNA-TAMRA and γPNA7-NLS treated U2932 xenograft mice. Scale bar, 30 μm.
FIGS. 6A-C show effect of systemic administration of indicated PNAs. (6A) IVIS® images of xenograft mice bearing tumors at indicated time points after systemic administration of γPNA7-NLS and γPNA6 at 5 mg/kg. (6B) IVIS® imaging of organs harvested from control, γPNA7-NLS, and γPNA6 treated mice after 24 hours of systemic administration. (6C) Confocal imaging of tumor, liver, and kidney sections obtained from xenograft mice after 24 h of treatment with γPNA7-NLS and γPNA6. Scale bar is 30 μm.
In vivo studies in xenograft mice model: U2932 derived xenografts were generated by implanting 10 million cells subcutaneously on the lower right flank of the female NSG mice (NOD.Cg-Prkdc^scidIl2rg^tm1Wj1/SzJ, #005557, Jackson Laboratories, USA) of 5-6 weeks. The mice were maintained in the animal care facility at the University of Connecticut following the required Institutional Animal Care and Use Committee guidelines (IACUC). Mice developed palpable tumors after 3-4 weeks of implantation. Tumor dimensions including length (l), breadth (b), and height (h) were measured using a caliper and volume was calculated using the formula for ellipsoid (0.5236×lbh).
Biodistribution studies: Mice with 600-800 mm^3 tumor volume were used for the biodistribution studies. γPNA7-NLS, γPNA6 and regular PNA-TAMRA (23 mer with 3 arginine residues) was injected systemically (retro-orbital) at 5 mg/kg dose. Live imaging of animals was performed using in vivo imaging (IVIS®) spectrum CT and epifluorescence was recorded at excitation/emission wavelength of 549/578 nm at 0, 0.25, 1, 2, 4, 6, 8 and 24 h. Mice were euthanized after 6 h and 24 h. Organs were collected and imaged via IVIS® to determine organ localization of PNA. Further organs were frozen in optimum cutting temperature media (OCT) at −80° C. The tumor, liver, and kidney from treated and untreated mice were sectioned using a cryostat to obtain 10 μm tissue sections. The sections were washed in PBS followed by fixation in 10% neutral buffered formalin. After washing with PBS, sections were permeabilized using 0.2% Triton™-X. The nucleus was stained using mounting media with DAPI (Invitrogen, USA). Sections were allowed to harden overnight, and images were taken using 60× oil lens on a Nikon AIR confocal microscope.

[2] = Biodistribution in transgenic Ep-myc mice (IVIS, confocal); format: in vivo; conditions: 24 hours
Procedure: FIGS. 8A-D show organ distribution after intravenous and subcutaneous administration of indicated PNAs. (8A) The organ distribution of γPNA-NLS TAMRA after intravenous (IV) and subcutaneous (SC) administration in transgenic mice model of B-cell lymphoma (Ep-myc). γPNA-NLS TAMRA was administered at 5 mg/kg via IV and SC route and organ distribution was determined via IVIS imaging after 24 h. (8B) Confocal microscopy images of different lymph nodes (LNs) after IV and SC injection of γPNA-NLS TAMRA. Blue indicates DAPI and red indicated TAMRA. Scale bar, 30 μm. (8C) C-myc protein levels in brachial lymph nodes of γPNA5-NLS treated mice in comparison to the control (untreated mice). N=4 mice per group. (8D) C-myc protein levels in axillary lymph nodes of γPNA5-NLS treated mice in comparison to the control (untreated mice). N=4 mice per group. Transgenic or Ep-myc mice were treated with γPNA5-NLS at 60 mg/kg dose over 2 days and mice were euthanized on day 3 for analysis.
In vivo studies in transgenic mice model: Ep-myc mice model of Burkitt lymphoma (B6.Cg-Tg(IgHMyc)22Bri/J, #002728, Jackson laboratories) which overexpresses c-myc was also used to test the efficacy of the designed PNA-NLS.
Biodistribution study: γPNA7-NLS containing TAMRA was administered via retro-orbital and subcutaneous route at 5 mg/kg dose in mice with visibly enlarged lymph nodes (cervical, brachial, axillary, and inguinal). Mice were euthanized after 24 h and organs were collected followed by imaging via IVIS®. All major organs and enlarged lymph nodes were collected and frozen in OCT media. The lymph nodes and organs were sectioned at 10 μm thickness using cryostat. The sections were then fixed, permeabilized and nucleus was stained with DAPI. The localization of PNA in lymph nodes was studied via confocal microscopy. Images were taken using 60× oil lens on a AIR confocal microscope.

[3] = organs harvested after 6 h, 5 mg/kg
[4] = xenograft mice, 5 mg/kg systemic, imaged up to 24 h

X3TCCCTCCCTCCGTTCTTTTTTCCCX7 (gamma PNA; NLS peptide; C-terminal TAMRA; gammaPNA to target; misc_feature 1 JJJTJJJT-linker- is covalently linked to the backbone, wherein J is pseudoisocytosine and the linker is 11-Amino-3,6,9-Trioxaundecanoic Acid (DCHA), represented as -OOO-; misc_feature 24 -K-linker-SEQ ID NO: 5-linker-label is covalently linked to the backbone, wherein the linker is 11-Amino-3,6,9-Trioxaundecanoic Acid (DCHA), represented as -OOO-, and the label i) [γPNA7-NLS]
cellular uptake, cytoplasm (confocal) (HeLa cells): significant accumulation of γPNA7-NLS in the cytoplasm
nuclear uptake (confocal, TAMRA overlap with Hoechst) (HeLa cells): accumulation of γPNA7-NLS within the nucleus
cellular and nuclear uptake (confocal) (U2932 cells): accumulation of γPNA7-NLS in both the nucleus and cytoplasm
cellular uptake by flow cytometry (U2932 cells; different doses): dose dependent increase in cellular uptake
accumulation in tumor (confocal microscopy of cryo-sections) ([1]; 6 h, 5 mg/kg): superior accumulation
TAMRA intensity from harvested tumors (IVIS) ([1]; 6 h after systemic administration, 5 mg/kg): significant TAMRA intensity
accumulation in tumors in comparison to γPNA6 (confocal imaging) ([1]; 24 h, 5 mg/kg): significantly higher accumulation in tumors
fluorescence signal of harvested tumors in comparison to γPNA6 (IVIS) ([1]; 24 h after systemic administration, 5 mg/kg): higher fluorescence signal
accumulation in tumor in comparison to liver, kidney, and intestine [1, 3]: higher in comparison to the other organs
accumulation in tumors in comparison to PNA-TAMRA (quantified fluorescence) [1, 3]: more than 6 fold
tumor accumulation until (live IVIS imaging) ([1]; xenograft mice, 5 mg/kg retro-orbital, imaged up to 6 h): 6 h
retained within the tumors until (live IVIS imaging) [1, 4]: 24 h
significant accumulation in tumors starting from (live IVIS imaging) [1, 4]: 0.25 h
accumulation in lymph nodes after IV administration (confocal) ([2]; 5 mg/kg IV): minimal accumulation in the lymph nodes
accumulation in lymph nodes after SC administration (confocal) ([2]; 5 mg/kg SC): accumulated significantly in multiple lymph nodes
accumulation in lymph nodes, SC route in comparison to IV route (IVIS) ([2]; 5 mg/kg): significantly higher accumulation
